Experimental data published in publication PMC10008584, “Cryo-EM structures of human Cx36/GJD2 neuronal gap junction channel” (Nature Communications, 2023).

Experiments:
[1] = target: BRIL-fused human Cx36 (cytoplasmic loop residues 109-187 replaced with cytochrome b562RIL) (UniProt Q9UKL4); experiment: cryo-EM structure; single-particle cryo-EM of the purified gap junction channel in LMNG/CHS detergent; D6 symmetry; 50 mM phenylalanine added for Cx36-WT
[2] = target: the molecule itself; experiment: as above
[3] = target: the molecule itself; experiment: cryo-EM structure; single-particle cryo-EM of the purified gap junction channel in MSP1E1 nanodiscs with soybean polar lipid extract; D6, C6 or C1 symmetry; 50 mM phenylalanine added for Cx36-WT

Question: How did the stoichiometry N [1] turn out when “BRIL-fused human Cx36 (cytoplasmic loop residues 109-187 replaced with cytochrome b562RIL) (from UniProt Q9UKL4 1-108; P0ABE7 21-128; Q9UKL4 188-321)” was run?
Answer: 12

B1: Wild-type human connexin 36 (Cx36/GJD2) gap junction channel (natural protein, UniProt Q9UKL4 1-321, looked up)
chain: MGEWTILERLLEAAVQQHSTMIGRILLTVVVIFRILIVAIVGETVYDDEQTMFVCNTLQPGCNQACYDRAFPISHIRYWVFQIIMVCTPSLCFITYSVHQSAKQRERRYSTVFLALDRDPPESIGGPGGTGGGGSGGGKREDKKLQNAIVNGVLQNTENTSKETEPDCLEVKELTPHPSGLRTASKSKLRRQEGISRFYIIQVVFRNALEIGFLVGQYFLYGFSVPGLYECNRYPCIKEVECYVSRPTEKTVFLVFMFAVSGICVVLNLAELNHLGWRKIKLAVRGAQAKRKSIYEIRNKDLPRVSVPNFGRTQSSDSAYV
notes: Connexin 36 (Cx36, GJD2), human, full length (Met1-Val321); The tags were cut off at an HRV 3C site between Cx36 and eYFP; residues of the site may be left at the C-terminus; also called Cx36-WT; Cx36_(LMNG)-WT; source: HEK293E, transiently transfected, purified (Rho-1D4 antibody resin, HRV 3C cleavage, Superose 6 Increase SEC); in LMNG/CHS or reconstituted in MSP1E1 soybean lipid nanodiscs; not …
Question: Which “stoichiometry N” value [2] does the source give for B1 here?
Answer: 12

B2: Human Cx36 with N-terminal residues 2-8 deleted (natural protein, UniProt Q9UKL4 1-321, looked up)
chain: MRLLEAAVQQHSTMIGRILLTVVVIFRILIVAIVGETVYDDEQTMFVCNTLQPGCNQACYDRAFPISHIRYWVFQIIMVCTPSLCFITYSVHQSAKQRERRYSTVFLALDRDPPESIGGPGGTGGGGSGGGKREDKKLQNAIVNGVLQNTENTSKETEPDCLEVKELTPHPSGLRTASKSKLRRQEGISRFYIIQVVFRNALEIGFLVGQYFLYGFSVPGLYECNRYPCIKEVECYVSRPTEKTVFLVFMFAVSGICVVLNLAELNHLGWRKIKLAVRGAQAKRKSIYEIRNKDLPRVSVPNFGRTQSSDSAYV
notes: Connexin 36 (Cx36, GJD2), human, full length with 7 N-terminal residues (2-8) deleted; Made by PCR from pXY-Cx36-WT; expressed and purified by the same protocol as Cx36-WT; also called Cx36-ΔN8; Cx36_(Nano)-ΔN8; source: HEK293E, transiently transfected, purified as Cx36-WT; reconstituted in MSP1E1 soybean lipid nanodiscs; not shown: eYFP, C-terminal, cleaved; 10xHis, C-terminal, cleaved; copies: …
Question: Does B2 bind [3]?
Answer: binds
